# From paper PMC4722452
# Legend:
# [1] = biological target: Sos^CatW729E (UniProt Q07889); test: other fluorescence titration; quenching of the intrinsic Trp fluorescence of Sos (10 μM) on adding Ras (1-50 μM) in Hepes buffer; excitation 295 nm, emission 336 nm; single-site quadratic fit; overall apparent (macroscopic) Kd
# [2] = biological target: Sos^Cat (Son of Sevenless, residues 563-1049) (UniProt Q07889); test: as above
# [3] = biological target: Sos^Cat (Son of Sevenless, residues 563-1049) (UniProt Q07889); test: NMR titration; 1H,13C HMQC of [13C-methyl-Met,Ile]Sos^Cat or Sos^CatW729E (60 μM) with unlabelled Ras added at Ras:Sos 0.5:1 to 4:1; 298 K; Met methyl reporter signals M726 (allosteric), M824 (catalytic), M714 (between)
Kd [1],Kd [2],"apparent microscopic Kd, allosteric site (from the M726 signal shift) [3]",Substance
67 µM,–,–,H-Ras·GDP (from UniProt P01112 1-166) (domain or fragment)
28 µM,–,–,H-Ras·GTPγS (from UniProt P01112 1-166) (domain or fragment)
–,31 µM,–,K-RasG12V·GTPγS (from UniProt P01116 1-166) (domain or fragment)
–,10 µM,2 µM,K-Ras·GTPγS (from UniProt P01116 1-166) (domain or fragment)
